Source: the supplement of paper PMC12764529
± gives the half width of the 95% confidence interval.

Assay: folding stability dG unfold from chymotrypsin proteolysis; higher = more stable
Outline: (§1)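 K50 was inferred by Bayesian fitting of sequencing counts obtained after protease digestion of designed mini-proteins. Unfolding free energy was derived by comparison with a sequence-predicted unfolded-state K50 and a shared folded-state K50, for each protease or both combined. The mini-proteins were under 80 residues, had no cysteine, were carried in a PA-tagged cDNA display construct, and were kept only if AlphaFold2 dimer inter-PAE exceeded 15.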
With “SAGKIPPGEEQKKKIKLGGKEIKIKMWTYKNPDGQPHMMFRVEYDGEPGIFNPDSGRPMTPDDIKKMLKSAG [r5_138_TrROS]” the “folding stability dG unfold” value was 1.24 ± 0.35 kcal/mol. For “SAGGMKITIKEDEETGEKVIEIEDEETGERVRVVFNPDGEEIEIEVPSPEVLEALKELGIEKVEVEEVSAGG [r13_511_TrROS_Hall]”, the “folding stability dG unfold” value was 1.07 ± 0.063 kcal/mol. For “SAMTLEEAKKKGLVVIRVKIEVTLPNGEKREFERVIVAESLEEALEALREELEREGYKVEIVEIEIEKLSAG [r14_854_TrROS_Hall]”, the “folding stability dG unfold” value was 1.51 ± 0.11 kcal/mol. With “SAGGSAGGEELLATATPVTVGDEVYYRFTIRNPDGTPIGDRLVPASVLSGYSPDTVITLPPDLLSAGGSAGG [r6_34_JUSTAS]” the “folding stability dG unfold” value was 0.784 ± 0.16 kcal/mol. In the case of “SAGGSAGGSAGGIEIRGPNGAELKIESDPDWGMVSIEMPGNRQEIQIPIPLPKPDPEDKNSAGGSAGGSAGG [r7_383_TrROS]”, the “folding stability dG unfold” value is reported as 0.22 ± 0.031 kcal/mol. In the case of “SAGGSAGGSAGSPLEEALAEARATGGPVTIRLPDGSEVVITVTEDEGELRVEVRSAAELGSAGGSAGGSAGG [r17_463_JUSTAS]”, the “folding stability dG unfold” value is reported as 0.911 ± 0.042 kcal/mol. In the case of “SGQHKVTVPIEIRIYPPDPDGKWKPIGEIPIPVTYEYPKDQPEKAERQAREQVIDEIKKFAKKNGYRIYISA [r9_356_TrROS]”, the “folding stability dG unfold” value is reported as 0.287 ± 0.36 kcal/mol. For “MEITTTPYTDPNSETTYWLITATLPDGRRITIVITKPAGGPWTVEVYAPDGTRISSKTYSSEEEAIEEALTS [r1_478_JUSTAS]”, the “folding stability dG unfold” value was 3.2 ± 0.036 kcal/mol. With “SAGGMTITVTVPEVPPDRTVTVEVYKPGEKLGSYSGTLNQPKNVTYTFTVPPATITINYSDGKTYPIPLSAG [r5_646_JUSTAS]” the “folding stability dG unfold” value was 3.4 ± 0.038 kcal/mol. For “SAGGSAGGSTIVIRLSKEELENMTAEELAEALAEEGAEVTVTVEYDEETDELVVTIEIHPEDLSAGGSAGGS [r12_716_TrROS_Hall]”, the “folding stability dG unfold” value was 2.01 ± 0.063 kcal/mol. In the case of “SAGGMLVTFTTPDGKTVTVEVDSLEEAKKVIAEKLGLPPDTVLDVTVTDPVTGEVTSETVTIPVPVPESAGG [r13_145_JUSTAS]”, the “folding stability dG unfold” value is reported as 3.99 ± 0.07 kcal/mol.

Assay: folding stability dG unfold (combined trypsin and chymotrypsin); higher = more stable
Outline: as §1
In the case of “SAGGSAGGSAGGGFYVKEIKGVKFGDKTLYIIRVYDDKGNEVFDVVAPPEVLKNLPPEVLSAGGSAGGSAGG [r7_263_TrMRF]”, the “folding stability dG unfold” value is reported as 1.52 ± 0.045 kcal/mol. For “SAGGSAGGSATQTIPFENPDGHPWTGTVEKRPDGMVKIDLTFPGGEKKEFYIPPGEEIRLPFSAGGSAGGSA [r18_115_TrROS]”, the “folding stability dG unfold” value was 0.42 ± 0.19 kcal/mol. With “SAGGSAGGSMKIVIVVDEDGSVRVRIEETGEEITFPKGMTAEEIAELLKKKFPNLEVEIVEVPSAGGSAGGS [r12_423_TrROS_Hall]” the “folding stability dG unfold” value was 3.76 ± 0.24 kcal/mol. In the case of “SAGGMRVERSTSPSGEPVLLITLYLPDGTRVAEAPLRLDPARGGLTEEELEAVLKEIDLPEDVEVELRSAGG [r13_479_JUSTAS]”, the “folding stability dG unfold” value is reported as 0.482 ± 0.14 kcal/mol. With “SGMEQKVEVLRVGAPGEEAVTRFTFKFEDKEFTLEASARLPDGSLVLLDFHVYRDPEGTFRVDVVVYPGFSA [r9_255_TrMRF]” the “folding stability dG unfold” value was 2.93 ± 0.1 kcal/mol. With “SAGGSAGGSAGGSGQEIPFMLIIKDPDGELDYIIQIEMRRVPNGGVDIEITEIIPAKDISAGGSAGGSAGGS [r4_117_TrROS]” the “folding stability dG unfold” value was 1.77 ± 0.1 kcal/mol. In the case of “SAGGSAGGSAGGMEVEYNPEELSPESEVTITVTLPGGEKVELKAKIYTNPDGSLSYELESAGGSAGGSAGGS [r10_390_JUSTAS]”, the “folding stability dG unfold” value is reported as 1.3 ± 0.053 kcal/mol. For “SAGGKTVEIKVKVKSLEELKAAIEALKKAGIKDVKVTKIELEKNEDGSLYARVTIEVEPAPEVVEEKESAGG [r13_174_TrROS_Hall]”, the “folding stability dG unfold” value was 3.15 ± 0.2 kcal/mol. With “SAGGKKKKLKIKIVIVAKSKEEAEKLAKELAEKLKELGIKEVEIEVEVIELPPPPPPPKPDSPEYKKKSAGG [r13_6_TrROS_Hall]” the “folding stability dG unfold” value was 0.372 ± 0.42 kcal/mol. In the case of “SAGGSAGGSAGGGELKYRTLTVDLPVDDPDGRKLPRRLVITFPASNPELAEAFLKALGYSAGGSAGGSAGGS [r10_1062_TrMRF]”, the “folding stability dG unfold” value is reported as 1.52 ± 0.034 kcal/mol. For “SAGGSAGGSAGGEEKTEEEKRKEERLKPAPPLVLELDVEVDGKLYRFRLVNGKLEIEELPSAGGSAGGSAGG [r7_156_TrROS_Hall]”, the “folding stability dG unfold” value was 2.56 ± 0.11 kcal/mol. For “SPPNFRMEQEEIEIEIRFPDGWRVSVEIEIHRMRFPDGDEMLHIDIKVEADPNNPGMRKLAKNLVEEIINSA [r9_908_TrROS]”, the “folding stability dG unfold” value was 1.85 ± 0.41 kcal/mol. In the case of “SAGGSAGGSGWYFHFEVSIWVMEFKYPGPDGKTMTMWFIMIEIKIEIVPPPPITPEDAAKMNGSAGGSAGGS [r12_1060_TrROS]”, the “folding stability dG unfold” value is reported as 3.76 ± 0.16 kcal/mol. In the case of “SAGKEKVLVIPVKVKPGEKIVVKVPSNSKILIIDLESGEIYEIDVPENVEPVFILPENKEYLIAVVFKSAGG [r19_78_TrMRF]”, the “folding stability dG unfold” value is reported as 3.38 ± 0.11 kcal/mol. For “SAGGMSPVKVAEKTYVIPLPSSMTKEEAKEEVKKELVPKGIDKIDIPISEDPNKGTLIIKVTVYKYPNESAG [r5_924_JUSTAS]”, the “folding stability dG unfold” value was 0.49 ± 0.35 kcal/mol. With “YKAKITSVSFIPGEGYIVFNVEVIGPDGIPATFPIVIKIEIEPEEPDPAPPVIKDPNGKVYNPIIPKWFDAS [r1_270_TrMRF]” the “folding stability dG unfold” value was 2.13 ± 0.09 kcal/mol. With “SAGGSAGGSAGKKKIVFLVEDPEEALKTLTFPKDANIEIEKIEVKPLPNGLYEVVIYLKNSAGGSAGGSAGG [r11_150_TrMRF]” the “folding stability dG unfold” value was 4.29 ± 0.24 kcal/mol. With “SAGGSAGGSAGGGMSIEEVKAKIEEEVGVEVSIEKVSGNTYKITLPKNNETYTIKIPKKSAGGSAGGSAGGS [r10_1032_JUSTAS]” the “folding stability dG unfold” value was 0.373 ± 0.25 kcal/mol. With “SAGGSAPPAVEEIAKILEELFPGYRVVAEAEPVRDPETDEVLLRIRVAVFDENGKVILELEITLPLSAGGSA [r15_1048_TrMRF]” the “folding stability dG unfold” value was 4.19 ± 0.07 kcal/mol. In the case of “GFVLIPFRLDDPDVTAGEIAEEVEKALPPEYGPLRLRVFFEDGSVLELEPGEKLGEHFEPDDEILVLVEGDS [r1_56_TrMRF]”, the “folding stability dG unfold” value is reported as 1.22 ± 0.14 kcal/mol. In the case of “SAGGSAGGSAGGPAVPVRTTLPDGRVVYYDPESGLTTIYVPETNETLVRDPATGTVTALSAGGSAGGSAGGS [r10_1057_JUSTAS]”, the “folding stability dG unfold” value is reported as 0.938 ± 0.036 kcal/mol.
